T1: MERS spike protein on recombinant CHO K1 cells (MERS-CoV, UniProt K9N5Q8 18-1353)
T1 sequence: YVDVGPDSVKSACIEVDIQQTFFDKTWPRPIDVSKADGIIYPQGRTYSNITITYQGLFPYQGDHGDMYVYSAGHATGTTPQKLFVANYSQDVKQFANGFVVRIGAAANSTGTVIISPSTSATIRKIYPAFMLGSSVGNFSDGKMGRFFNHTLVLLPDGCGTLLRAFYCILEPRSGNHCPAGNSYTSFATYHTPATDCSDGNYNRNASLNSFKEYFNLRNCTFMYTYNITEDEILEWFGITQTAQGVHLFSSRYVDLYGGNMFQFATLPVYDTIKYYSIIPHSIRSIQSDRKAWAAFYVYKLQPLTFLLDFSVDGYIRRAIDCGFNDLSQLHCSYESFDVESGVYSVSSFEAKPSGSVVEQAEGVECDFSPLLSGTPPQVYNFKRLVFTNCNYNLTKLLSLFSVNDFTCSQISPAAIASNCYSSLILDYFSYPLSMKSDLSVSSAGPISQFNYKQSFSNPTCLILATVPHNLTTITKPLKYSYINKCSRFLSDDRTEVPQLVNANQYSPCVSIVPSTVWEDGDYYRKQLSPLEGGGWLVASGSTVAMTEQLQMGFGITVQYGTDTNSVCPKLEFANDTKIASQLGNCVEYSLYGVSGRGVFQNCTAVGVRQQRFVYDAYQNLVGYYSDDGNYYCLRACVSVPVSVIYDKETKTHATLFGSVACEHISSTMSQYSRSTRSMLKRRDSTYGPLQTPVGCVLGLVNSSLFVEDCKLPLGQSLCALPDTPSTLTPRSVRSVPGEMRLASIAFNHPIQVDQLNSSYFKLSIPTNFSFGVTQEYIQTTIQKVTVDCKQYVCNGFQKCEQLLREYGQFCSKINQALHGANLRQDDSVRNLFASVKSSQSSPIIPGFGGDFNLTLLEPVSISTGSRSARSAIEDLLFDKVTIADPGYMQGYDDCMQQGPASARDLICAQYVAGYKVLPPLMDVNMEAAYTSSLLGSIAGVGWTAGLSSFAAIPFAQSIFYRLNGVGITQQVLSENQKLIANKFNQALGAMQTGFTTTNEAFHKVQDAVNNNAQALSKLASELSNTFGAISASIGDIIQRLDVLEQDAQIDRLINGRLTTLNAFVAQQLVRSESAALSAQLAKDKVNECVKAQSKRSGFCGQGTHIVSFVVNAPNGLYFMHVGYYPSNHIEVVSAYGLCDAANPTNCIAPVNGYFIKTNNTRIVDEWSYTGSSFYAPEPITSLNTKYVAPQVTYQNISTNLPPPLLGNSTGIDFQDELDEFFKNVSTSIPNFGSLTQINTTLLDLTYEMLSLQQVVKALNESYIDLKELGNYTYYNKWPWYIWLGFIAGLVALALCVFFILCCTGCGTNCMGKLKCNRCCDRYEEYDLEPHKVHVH

B1: 15H1 VHH-Fc (Fc fusion)
chain: QVQLVESGGGLAQAGGSLRLSCASSGLIFSGSAMGWFRQAPGKEREFVGVISWNGRTTYADSVKGRFTISRDDAVNMVWLQMNNLKPEDTAVYYCAADHLNYGSGDVNPRTYDYWGQGTQVTVSS
B2: 10B8 VHH-Fc (Fc fusion)
chain: QVQLVESGGGLVQPGGSLRLSCAASGITLDYYAIAWFRQAPGKEREGVSCFCSSDGDIRYADSVKGRFTISRDNAKNTVYLQMNSLKPEDTAVYYCATERVYSSTWFFHRYSELDFGSWGRGTQVTVSS
B3: 13C8 VHH-Fc (Fc fusion)
chain: QVQLVESGGGLVQAGGSLRLSCAASGRTVNKYMTGWFRQTPGKEREFVASIDWSSTTTHYANSVKGRFTISRDKVKNTVYLQMNGLKPEDTAVYYCAAHQDSSYGYTILPIDYDSWGQGTQVTVSS
B4: 8E9 VHH-Fc (Fc fusion)
chain: QVQLVESGGGLVEAGGSLRLSCVASGSSSSINAMGWYRQAPGKQRELVASISHDGETKYANSVKGRFTISRGNAKNTIYLQMNSLKPEDTAVYYCVGDVAWVVVAGEYDYWGQGTQVTVSS
B5: 9B2 VHH-Fc (Fc fusion)
chain: QVQLVESGGGLVQPGGSLRLSCAASGFTLDNYAIGWFRQAPGKEREGVSCISSSDGDTQYADSVKGRFTISRDNAKNTVYLQMNSLKPEDTAVYYCAVEKVYARSWFFHLCSELDFGSWGQGTQVTVSS
B6: 1A11 VHH-Fc (Fc fusion)
chain: QVQLVESGGGLVQAGGSLRLSCEVSGSIYSINSMGWYRQAPGKQRELVAGIVSDGRINYADSVKGRFTISRAKNTVYLQMNSLKPEDTAVYYCAADRAFVYAGDYDYLGQGTQVTVSS
B7: 1E4 VHH-Fc (Fc fusion)
chain: QVLLVESGGGLVQAGGLLRLACSASGRTFTENVMGWFRQAPGKEREFVAAINWNTGSTYYSDSRKGRFTISKDNAKNTMFLQINNLKPEDTAVYYCGGTSSSYYYIGEFIPDYWGQGTQVTVSS
B8: 15H7 VHH-Fc (Fc fusion)
chain: QVQLVESGGRLVQAGGSLRLSCAAPGRTFRNLTLGWFRQAPGKEREFVASTSWPDDEMTYYTDSVKGRFTISRDNAKNTVYLQMNSLKPEDTAVYYCAAASWSGRSTLSYDYDYWGQGTQVTVST
B9: 5D7 VHH-Fc (Fc fusion)
chain: QVQLVESGGGLVQAGGSLRLSCAASGRTGSRYIMGWFRQAPGKEREFVAAINWRGDSTYYADSVKGRFTIARDNAKNTAYLQMNSLKPEDTAVYYCVADRGESYYYTRSTEYTYWGQGTQVTVSS
B10: 19E10 VHH-Fc (Fc fusion)
chain: QVQLVESGGGLVQPGGSLRLSCVASGSTISINSMGWYRQAPGKAREMVATITNDGPIKYADPVKGRFTISRDNPKNTVYLQMNSLKPEDTAVYYCVADRAYWLAGEWEYWGQGTQVTVSS
B11: 5A6 VHH-Fc (Fc fusion)
chain: QVQLVESGGGLAQAGGSLRLSCATSGLTFSMSAMGWFRQAPGNEREFVGVINWNGGSSRYADSVRGRFTISRDNAKNTVYLQMNSLKPEDTGVYYCAADALNIGTGEVNPRLYDYWGQGTQVMVSS
B12: 10B8 VHH (VHH)
VHH: B2 chain

The source of these data is patent US20250382355A1 (Merck Sharp & Dohme, published 2025).

For the first experiment, the target named is SARS-CoV spike on rVSV-deltaG-Luc pseudovirus (SARS-CoV, UniProt P59594 14-1236). Put plainly: cell-based or functional assay.
Consider B1, for which the “pseudovirus neutralization IC50” value worked out at 12.3 nM.
With B2, the “pseudovirus neutralization IC50” value is 0.09 nM.
For the molecule B3, the “pseudovirus neutralization IC50” value came to 4.98 nM.
Take B4: the “pseudovirus neutralization IC50” value was 2.94 nM.
Still for that read-out and setting: to B5 belongs 0.19 nM; to B6, 0.18 nM.
The same measure, in the same setting: to B7 belongs 0.06 nM.
The same measure, in the same setting: to B8 belongs 1.71 nM.
As to B9, the “pseudovirus neutralization IC50” value turned out to be 220 nM.
The same measure, in the same setting: to B10 belongs 0.12 nM.
Still for that read-out and setting: to B11 belongs 6.3 nM.

In a further experiment the target is spike protein of authentic SARS-CoV-2 virus (SARS-CoV-2, UniProt P0DTC2 14-1273). The experiment is described as follows: cell-based or functional assay.
Turning to B2, the “authentic virus neutralization IC50” value came to 0.3 nM.
The same measure, in the same setting: to B12 belongs 2.9 nM; to B7, 0.2 nM.

For a further experiment, the target named is spike protein of authentic SARS-CoV/Urbani virus (SARS-CoV, UniProt P59594 14-1255). The experiment is described as follows: cell-based or functional assay.
As for B2, the “authentic virus neutralization IC50” value stood at 0.04 nM.
The same measure, in the same setting: to B12 belongs 0.15 nM; to B7, 0.05 nM.

In the next experiment the target is T2, SARS-CoV-2 spike protein on recombinant CHO K1 cells (SARS-CoV-2, UniProt P0DTC2 14-1273).
T2 construct: whole, on cells
Put plainly: FACS on CHO K1 cells.
Turning to B1, the EC50 – broadly, the concentration needed to bring the measured effect to its halfway point – came out at 0.25 nM.
As to B2, the EC50 amounted to 0.19 nM.
The same measure, in the same setting: to B3 belongs 0.22 nM; to B4, 0.31 nM.
In the case of B5, the EC50 came to 0.21 nM.
Take B6: the EC50 amounted to 0.13 nM.
Still for that read-out and setting: to B7 belongs 0.06 nM; to B8, 0.28 nM.
For B9, the EC50 is 0.12 nM.
On the same count and under the same terms, to B10 belongs 0.14 nM; to B11, 0.43 nM.

The target in the next experiment is SARS-CoV spike protein on recombinant CHO K1 cells (SARS-CoV, UniProt P59594 14-1255). The experiment is described as follows: FACS on CHO K1 cells.
For the molecule B1, the EC50 was found to be 0.14 nM.
With B2, the EC50 is 0.14 nM.
Same read-out and setting: to B3 belongs 0.11 nM; to B4, 0.17 nM.
For the molecule B5, the EC50 amounted to 0.13 nM.
For the molecule B6, the EC50 turned out to be 0.06 nM.
The same measure, in the same setting: to B8 belongs 0.14 nM; to B9, 0.09 nM.
Same read-out and setting: to B10 belongs 0.08 nM; to B11, 0.21 nM.

In another experiment the target is T1, MERS spike protein on recombinant CHO …. Put plainly: FACS on CHO K1 cells.
With B1, the binding result is listed as “no binding”.
With B2, the binding result is listed as “no binding”.
On the same count and under the same terms, to B3 belongs “no binding”; to B4, “no binding”.
On the same count and under the same terms, to B5 belongs “no binding”; to B6, “no binding”.
Still for that read-out and setting: to B7 belongs “no binding”; to B8, “no binding”; to B9, “no binding”.
B10: the binding result was “no binding”.
The same measure, in the same setting: to B11 belongs “no binding”.
